# B1: Compound A (peptide)
# peptide: RCMXRVYXC
# modifications: N-terminal acetyl on Arg 1 (printed Arg-C(=O)CH3); C-terminal amide on Cys 9 (printed H2N-Cys); X at positions 4 and 8 = Ava (5-aminovaleric acid); the two Cys residues (2 and 9) are bound to each other through a -SS- bond
# notes: Synthetic cyclic peptide with two non-natural Ava residues; The direction of the printed formula is interpreted; also called MCH1R antagonist; H2N-Cys-Ava-Tyr-Val-Arg-Ava-Met-Cys-Arg-C(=O)CH3
# Columns and labels:
# Assay in all cases: receptor inhibition assay at 10 µM Compound A, ratio relative to a control compound
# Histamine H3 receptor = molecular target: Histamine H3 receptor
# Method: (§1) The inhibitory action of Compound A against various receptors listed in Table 2 was examined to evaluate the specificity of Compound A. The activities of the receptors were measured by using an appropriate assay system according to the property of the respective receptors. Further, the evaluation results of Compound A were calculated as an inhibition ratio at a final concentration of 10 μM. Here, the inhibition ratio was calculated based on a value of a control compound in each assay. As is apparent from the results shown in Table 2, it was confirmed that Compound A is specific to an MCH receptor. Incidentally, examination was carried out with regard to 173 kinds of physiologically functional proteins including the receptors shown in Table 2, however, the affinity thereof could not be found other than the MCH receptors, and only major receptors are shown in Table 2.
# Glutamate AMPA receptor = molecular target: Glutamate AMPA receptor
# Method: as §1
# Neuropeptide Y1 receptor = molecular target: Neuropeptide Y1 receptor
# Method: as §1
# Muscarine M1 receptor = molecular target: Muscarine M1 receptor
# Method: as §1
binder,measurement,setting,value
B1,Inhibition ratio,Histamine H3 receptor,-6
same,Inhibition ratio,Glutamate AMPA receptor,8
same,Inhibition ratio,Neuropeptide Y1 receptor,17
same,Inhibition ratio,Muscarine M1 receptor,0
